Results taken from patent US20250283129A1, “PROCESS” (Sun Pharmaceutical Industries Australia Pty Limited, priority 2021, published 2025).
Read-outs that look alike come from different tables or passages of the source.

Columns and labels:
codeine = assay: Whole cell biotransformation of codeine to morphine by E. coli cells expressing CODM variants; assay type: cell-based; settings: for average codeine to morphine yield: FIG. 5, morphine assayed after 30 minutes per legend; for morphine yield improved relative to WT CODM: morphine yield assayed after 30 minutes; for speed of biotransformation with codeine as substrate (in words): time course over two hours
thebaine = assay: Whole cell biotransformation of thebaine to oripavine by E. coli cells expressing CODM variants; assay type: cell-based; settings: for average thebaine to oripavine yield: FIG. 5; for oripavine yield improved relative to WT CODM: oripavine yield assayed after 4 hours
[1] = morphine after 30 minutes, oripavine after 4 hours

B1: 17M: codeine 3-O-demethylase with amino acid substitution I7M (protein, listed as Papaver somniferum)
chain: METPILMKLGNGLSIPSVQELAKLTLAEIPSRYTCTGESPLNNIGASVTDDETVPVIDLQNLLSPEPVVGKLELDKLHSACKEWGFFQLVNHGVDALLMDNIKSEIKGFFNLPMNEKTKYGQQDGDFEGFGQPYIESEDQRLDWTEVFSMLSLPLHLRKPHLFPELPLPFRETLESYLSKMKKLSTVVFEMLEKSLQLVEIKGMTDLFEDGLQTMRMNYYPPCPRPELVLGLTSHSDFSGLTILLQLNEVEGLQIRKEERWISIKPLPDAFIVNVGDILEIMTNGIYRSVEHRAVVNSTKERLSIATFHDSKLESEIGPISSLVTPETPALFKRGRYEDILKENLSRKLDGKSFLDYMRM
average codeine to morphine yield (codeine): 32% | average thebaine to oripavine yield (thebaine; after 4 hours): 6%

B2: M360I: codeine 3-O-demethylase with amino acid substitution M360I (protein, listed as Papaver somniferum)
chain: METPILIKLGNGLSIPSVQELAKLTLAEIPSRYTCTGESPLNNIGASVTDDETVPVIDLQNLLSPEPVVGKLELDKLHSACKEWGFFQLVNHGVDALLMDNIKSEIKGFFNLPMNEKTKYGQQDGDFEGFGQPYIESEDQRLDWTEVFSMLSLPLHLRKPHLFPELPLPFRETLESYLSKMKKLSTVVFEMLEKSLQLVEIKGMTDLFEDGLQTMRMNYYPPCPRPELVLGLTSHSDFSGLTILLQLNEVEGLQIRKEERWISIKPLPDAFIVNVGDILEIMTNGIYRSVEHRAVVNSTKERLSIATFHDSKLESEIGPISSLVTPETPALFKRGRYEDILKENLSRKLDGKSFLDYMRI
morphine yield improved relative to WT CODM (codeine): ~29% | speed of biotransformation with codeine as substrate (in words) (codeine): faster than the WT CODM control but not as fast as the other two mutant strains | oripavine yield improved relative to WT CODM (thebaine): ~33%

B3: R260T: codeine 3-O-demethylase with amino acid substitution R260T (protein, listed as Papaver somniferum)
chain: METPILIKLGNGLSIPSVQELAKLTLAEIPSRYTCTGESPLNNIGASVTDDETVPVIDLQNLLSPEPVVGKLELDKLHSACKEWGFFQLVNHGVDALLMDNIKSEIKGFFNLPMNEKTKYGQQDGDFEGFGQPYIESEDQRLDWTEVFSMLSLPLHLRKPHLFPELPLPFRETLESYLSKMKKLSTVVFEMLEKSLQLVEIKGMTDLFEDGLQTMRMNYYPPCPRPELVLGLTSHSDFSGLTILLQLNEVEGLQIRKEETWISIKPLPDAFIVNVGDILEIMTNGIYRSVEHRAVVNSTKERLSIATFHDSKLESEIGPISSLVTPETPALFKRGRYEDILKENLSRKLDGKSFLDYMRM
less morphine generated than WT CODM (codeine; after 30 minutes): ~28% | less oripavine generated than WT CODM (thebaine; after 4 hours): ~29%

B4: E259G: codeine 3-O-demethylase with amino acid substitution E259G (protein, listed as Papaver somniferum)
chain: METPILIKLGNGLSIPSVQELAKLTLAEIPSRYTCTGESPLNNIGASVTDDETVPVIDLQNLLSPEPVVGKLELDKLHSACKEWGFFQLVNHGVDALLMDNIKSEIKGFFNLPMNEKTKYGQQDGDFEGFGQPYIESEDQRLDWTEVFSMLSLPLHLRKPHLFPELPLPFRETLESYLSKMKKLSTVVFEMLEKSLQLVEIKGMTDLFEDGLQTMRMNYYPPCPRPELVLGLTSHSDFSGLTILLQLNEVEGLQIRKEGRWISIKPLPDAFIVNVGDILEIMTNGIYRSVEHRAVVNSTKERLSIATFHDSKLESEIGPISSLVTPETPALFKRGRYEDILKENLSRKLDGKSFLDYMRM
morphine yield improved relative to WT CODM (codeine): ~24% | oripavine yield improved relative to WT CODM (thebaine): ~27%

B5: E259D: codeine 3-O-demethylase with amino acid substitution E259D (protein, listed as Papaver somniferum)
chain: METPILIKLGNGLSIPSVQELAKLTLAEIPSRYTCTGESPLNNIGASVTDDETVPVIDLQNLLSPEPVVGKLELDKLHSACKEWGFFQLVNHGVDALLMDNIKSEIKGFFNLPMNEKTKYGQQDGDFEGFGQPYIESEDQRLDWTEVFSMLSLPLHLRKPHLFPELPLPFRETLESYLSKMKKLSTVVFEMLEKSLQLVEIKGMTDLFEDGLQTMRMNYYPPCPRPELVLGLTSHSDFSGLTILLQLNEVEGLQIRKEDRWISIKPLPDAFIVNVGDILEIMTNGIYRSVEHRAVVNSTKERLSIATFHDSKLESEIGPISSLVTPETPALFKRGRYEDILKENLSRKLDGKSFLDYMRM
morphine yield improved relative to WT CODM (codeine): ~30% | oripavine yield improved relative to WT CODM (thebaine): ~38%

B6: E259G+R260K: codeine 3-O-demethylase with amino acid substitutions E259G and R260K (protein, listed as Papaver somniferum)
chain: METPILIKLGNGLSIPSVQELAKLTLAEIPSRYTCTGESPLNNIGASVTDDETVPVIDLQNLLSPEPVVGKLELDKLHSACKEWGFFQLVNHGVDALLMDNIKSEIKGFFNLPMNEKTKYGQQDGDFEGFGQPYIESEDQRLDWTEVFSMLSLPLHLRKPHLFPELPLPFRETLESYLSKMKKLSTVVFEMLEKSLQLVEIKGMTDLFEDGLQTMRMNYYPPCPRPELVLGLTSHSDFSGLTILLQLNEVEGLQIRKEGKWISIKPLPDAFIVNVGDILEIMTNGIYRSVEHRAVVNSTKERLSIATFHDSKLESEIGPISSLVTPETPALFKRGRYEDILKENLSRKLDGKSFLDYMRM
product yield / performance compared to WT CODM strain (in words) (thebaine): improved compared to the WT CODM stain

B7: P4A: codeine 3-O-demethylase with amino acid substitution P4A (protein, listed as Papaver somniferum)
chain: METAILIKLGNGLSIPSVQELAKLTLAEIPSRYTCTGESPLNNIGASVTDDETVPVIDLQNLLSPEPVVGKLELDKLHSACKEWGFFQLVNHGVDALLMDNIKSEIKGFFNLPMNEKTKYGQQDGDFEGFGQPYIESEDQRLDWTEVFSMLSLPLHLRKPHLFPELPLPFRETLESYLSKMKKLSTVVFEMLEKSLQLVEIKGMTDLFEDGLQTMRMNYYPPCPRPELVLGLTSHSDFSGLTILLQLNEVEGLQIRKEERWISIKPLPDAFIVNVGDILEIMTNGIYRSVEHRAVVNSTKERLSIATFHDSKLESEIGPISSLVTPETPALFKRGRYEDILKENLSRKLDGKSFLDYMRM
product yield / performance compared to WT CODM strain (in words) (thebaine; [1]): minor improvement in product yield

B8: E259D+R260K: codeine 3-O-demethylase with amino acid substitutions E259D and R260K (protein, listed as Papaver somniferum)
chain: METPILIKLGNGLSIPSVQELAKLTLAEIPSRYTCTGESPLNNIGASVTDDETVPVIDLQNLLSPEPVVGKLELDKLHSACKEWGFFQLVNHGVDALLMDNIKSEIKGFFNLPMNEKTKYGQQDGDFEGFGQPYIESEDQRLDWTEVFSMLSLPLHLRKPHLFPELPLPFRETLESYLSKMKKLSTVVFEMLEKSLQLVEIKGMTDLFEDGLQTMRMNYYPPCPRPELVLGLTSHSDFSGLTILLQLNEVEGLQIRKEDKWISIKPLPDAFIVNVGDILEIMTNGIYRSVEHRAVVNSTKERLSIATFHDSKLESEIGPISSLVTPETPALFKRGRYEDILKENLSRKLDGKSFLDYMRM
product yield / performance compared to WT CODM strain (in words) (thebaine; [1]): improved compared to the WT CODM stain

B9: 15K: codeine 3-O-demethylase with amino acid substitution I5K (protein, listed as Papaver somniferum)
chain: METPKLIKLGNGLSIPSVQELAKLTLAEIPSRYTCTGESPLNNIGASVTDDETVPVIDLQNLLSPEPVVGKLELDKLHSACKEWGFFQLVNHGVDALLMDNIKSEIKGFFNLPMNEKTKYGQQDGDFEGFGQPYIESEDQRLDWTEVFSMLSLPLHLRKPHLFPELPLPFRETLESYLSKMKKLSTVVFEMLEKSLQLVEIKGMTDLFEDGLQTMRMNYYPPCPRPELVLGLTSHSDFSGLTILLQLNEVEGLQIRKEERWISIKPLPDAFIVNVGDILEIMTNGIYRSVEHRAVVNSTKERLSIATFHDSKLESEIGPISSLVTPETPALFKRGRYEDILKENLSRKLDGKSFLDYMRM
morphine yield improved relative to WT CODM (codeine): ~58% | speed of biotransformation with codeine as substrate (in words) (codeine): faster than the WT CODM control | yield of morphine (codeine; time course, after one hour): ~94% | oripavine yield improved relative to WT CODM (thebaine): ~79%

B10: WT CODM: wild type codeine 3-O-demethylase (UniProtKB: D4N502), N-terminally fused to 6H and MBP, expressed in E. coli (protein, UniProt D4N502 1-360, looked up)
Codeine O-demethylase: METPILIKLGNGLSIPSVQELAKLTLAEIPSRYTCTGESPLNNIGASVTDDETVPVIDLQNLLSPEPVVGKLELDKLHSACKEWGFFQLVNHGVDALLMDNIKSEIKGFFNLPMNEKTKYGQQDGDFEGFGQPYIESEDQRLDWTEVFSMLSLPLHLRKPHLFPELPLPFRETLESYLSKMKKLSTVVFEMLEKSLQLVEIKGMTDLFEDGLQTMRMNYYPPCPRPELVLGLTSHSDFSGLTILLQLNEVEGLQIRKEERWISIKPLPDAFIVNVGDILEIMTNGIYRSVEHRAVVNSTKERLSIATFHDSKLESEIGPISSLVTPETPALFKRGRYEDILKENLSRKLDGKSFLDYMRM
modifications: N-terminal His6-MBP fusion
notes: wild type codeine 3-O-demethylase (UniProtKB: D4N502), N-terminally fused to 6H and MBP, expressed in E. coli
average codeine to morphine yield (codeine): 47% | average thebaine to oripavine yield (thebaine; after 4 hours): 47%

B11: T3K: codeine 3-O-demethylase with amino acid substitution T3K (protein, listed as Papaver somniferum)
chain: MEKPILIKLGNGLSIPSVQELAKLTLAEIPSRYTCTGESPLNNIGASVTDDETVPVIDLQNLLSPEPVVGKLELDKLHSACKEWGFFQLVNHGVDALLMDNIKSEIKGFFNLPMNEKTKYGQQDGDFEGFGQPYIESEDQRLDWTEVFSMLSLPLHLRKPHLFPELPLPFRETLESYLSKMKKLSTVVFEMLEKSLQLVEIKGMTDLFEDGLQTMRMNYYPPCPRPELVLGLTSHSDFSGLTILLQLNEVEGLQIRKEERWISIKPLPDAFIVNVGDILEIMTNGIYRSVEHRAVVNSTKERLSIATFHDSKLESEIGPISSLVTPETPALFKRGRYEDILKENLSRKLDGKSFLDYMRM
product yield / performance compared to WT CODM strain (in words) (thebaine; [1]): minor improvement in product yield
